Consider 41 sequences from the nanobody polyreactivity screen of Harvey et al. (2022).

This data set can be described thus: yeast display, Sf9 membrane polyspecificity reagent, FACS + sequencing; frameworks hold sequencing errors. In a few lines:
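A nanobody's polyreactivity label depends on the gate it was sorted from. Yeast display cells were stained with 10% biotinylated, detergent-solubilized Sf9 membrane reagent for 1 hour at 4 °C, enriched on streptavidin microbeads and sorted by FACS. The low and high (top ~1%) gates were set on anti-HA fluorescence for expression and streptavidin fluorescence for reagent binding.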
Regarding “QVQLVESGGGLVQAGGSLRLSCAASGSIFTLNAMGWYRQAPGKERELVAAISRSGGSTYYADSVKGRFTISRDNAKNTVYLQMNSLKPEDTAVYYCAVYVTRDSGWWLYDYWGQGTQVTVSS”, the “polyreactivity (PSR sort gate)” value is “high polyreactivity”.

Regarding “QVQLVESGGGLVQAGGSLRLSCAASGSIFTLYAMGWYRQAPGKERELVAAITWSGGSTYYADSVKGRFTISRDNAKNTVYLQMNSLKPEDTAVYFCAKDYLAGGPWEGHVEREYDYWGQGTQVTVSS”, the “polyreactivity (PSR sort gate)” value is reported as “low polyreactivity”.

As for “QVQLVESGGGLVQAGGSLRLSCAASGSIFTPNAMGWYRQAPGKERALVAAISSSSDRTYYADSVKGRFTISRDNAKNTVYLQMNSLKPEDTAVYYCAAYAQKRYYWGQGTQVTVSS”, the “polyreactivity (PSR sort gate)” value was “high polyreactivity”. Next, “QVQLVESGGGLVQAGGSLRLSCAASGSIFTPNSMGSYRPAPGKERELVAAISSSSDRTYYADSVKGRFTISRDNAKNTVYLQRNSLKPEDTAVYYCAAYAQKRYYWGQGTEVTVSS”: “high polyreactivity”; “QVQLVESGGGLVQAGGSLRLSCAASGSIFTPYAMGWYRQAPGKERELVAAISRSGGSTYYADSVKGRFTISRDKAKNTVYLQMNRLKPADSAVYYCAADVQTLITLGQFDYWGQGTQVTVSS”: “low polyreactivity”; “QVQLVESGGGLVQAGGSLRLSCAASGSIFTPYAMGWYRQAPGKERELVAAISRSGGSTYYADSVKGRFTISRDNAKITVYLQMNSLKPEDTAVYYCAVVASLSHTETPEYDYWGQGTQGTVSS”: “low polyreactivity”.

With “QVQLVESGGGLVQAGGSLRLSCAASGSIFTPYAMGWYRQAPGKERELVATISARGGSTYYADSVKGRFTISRDNAKNTVYLQMNSLKPEDTAVYYCNVDYAQRVFLYDYWGQGTQVTVSS”, the “polyreactivity (PSR sort gate)” value is given as “low polyreactivity”. The value for “QVQLVESGGGLVQAGGSLRLSCAASGSIFTRNAMGWYRQAPGKERELVAAISWRGGITNYADSVKGRFTISRDNAKNTVYLQMNSLKPEDTAVYYCNKKRTRGGYGYWGQGTQVTVSS” was “high polyreactivity”.

Turning to “QVQLVESGGGLVQAGGSLRLSCAASGSIFTRNTMGWSRQAPGKERELVAAISQRGGSTYSADSVKGRFTISRDNAKNTVYLQMNSLKPEDTAVYYCAADFSFGYYWDGFWGQGTQVTVSS”, the “polyreactivity (PSR sort gate)” value was “high polyreactivity”. The value for “QVQLVESGGGLVQAGGSLRLSCAASGSIFTRYAMGWYRQAPGKERELVAAISRSDGGTNYADSVKGRFTISRDNAKNTVYLQMNSLKPEDTAVYYCAKDWYYYYPYDYWGQGTQVTVSS” was “low polyreactivity”; that for “QVQLVESGGGLVQAGGSLRLSCAASGSIFTRYVQGWYRQAPGNDRELVAAISGRGSSTYYADSVKGRFTISRDNAKNTVYLQMNSLKPEDTAVYYCAAEIVVFYSEGQRNTFYYWGQGTQVTVSS” was “high polyreactivity”; that for “QVQLVESGGGLVQAGGSLRLSCAASGSIFTSNAMGWYRQAPVKERELVASISSDGSTKYADSVKGRFTISRDNAKNTVYLQMNSLKPEDTAVYYCAADLGYWVYVEYDYWGQGTQVTVSS” was “low polyreactivity”.

In the case of “QVQLVESGGGLVQAGGSLRLSCAASGSIFTSYAIGWYRQAPGKERELVAGIDWSGGGTYYADSVKGRFTISRDNAKNTVYLQMNSLKPEDTAVYYCNADGPYTRYGPVDYWGQGTQVTVSS”, the “polyreactivity (PSR sort gate)” value is “low polyreactivity”. Regarding “QVQLVESGGGLVQAGGSLRLSCAASGSIFTSYAMGWYRQAPGKERELVAGITRGGRTYYADSVKGRFTISRDNAKNTVYLQMNSLKPEDTAVYYCAALSSRHFVFTVDYWGQGTQVTVSS”, the “polyreactivity (PSR sort gate)” value is “high polyreactivity”. Next, “QVQLVESGGGLVQAGGSLRLSCAASGSIFTSYGMGWYRQAPGKERELVAAITYSGDRTYYADSVKGRFTISRDNAKITVYLQMNSLNPEDTAVYYCNVAYVYGSFRRRPMGYWGQGTQVTVSS”: “high polyreactivity”; “QVQLVESGGGLVQAGGSLRLSCAASGSIFTTYAMGWSRQAPGKERELVAAISRSGGSTYSADSVKGRFTISRDNANYTVYLQKNSLKPEDTAVYYCNAVSRYTSDYEDDYWGLGTQVTVSS”: “high polyreactivity”.

Turning to “QVQLVESGGGLVQAGGSLRLSCAASGSIFTTYAMGWYRQAPGKERELVAAISRAGDTTYADSVKGRFTISRDNAKNTVYLQMNSLKPEDTAVYYCADYDYWGQGTQVTVSS”, the “polyreactivity (PSR sort gate)” value is “low polyreactivity”.

As for “QVQLVESGGGLVQAGGSLRLSCAASGSIFTTYAMGWYRQAPGKERELVAGITGGDSSTYADSVKGRFTISRDNAKNTVYLQMNSLKPEDTAVYYCAVDSPYQHDDYWGQGTQVTVSS”, the “polyreactivity (PSR sort gate)” value is reported as “low polyreactivity”. The value for “QVQLVESGGGLVQAGGSLRLSCAASGSIFTTYAMGWYRQAPGKERELVAVISRRGGSTYYADSVKGRFTISRDNAKNTVYLQMNSLTPEDTADYYCNAYTYTYHRDHTDRYNYWGQGTQVTVSS” was “high polyreactivity”; that for “QVQLVESGGGLVQAGGSLRLSCAASGSIFTVNAMGWYRPAPAKERELVATISDTGGSTYADSVKGRFTISRYNAKNTVYLQMNSLKPEDTAVYYCNADYYVRRYPPYDYWGQGTQVTVSS” was “low polyreactivity”; that for “QVQLVESGGGLVQAGGSLRLSCAASGSIFTVNAMGWYRQAPGKERELVAAIDGSSGSTNYADSVKGRFTISRDNAKNTVYLQMNSLKPEDTAVYYCAADWSYEYGYWGQGTQVTVSS” was “low polyreactivity”. On to “QVQLVESGGGLVQAGGSLRLSCAASGSIFTVYAMGWSRQAPGKERELVAAITSGGSTNYADSVKGRFTISRDNAKNTVYLQMNSLKPEDTAVYDCNAVWRYGSARYGYWGQGTQVTVSS”, for which the “polyreactivity (PSR sort gate)” value is given as “low polyreactivity”. Next, “QVQLVESGGGLVQAGGSLRLSCAASGSIFTWYTMGWYRQAPGKERELVAGIRTGGSTYYADSVKGRFTISRDNAKNTVYLQMNSLKPEDTSVYYCARQRWYRQYYFTSDYWGLGTQVTVSS”: “high polyreactivity”; “QVQLVESGGGLVQAGGSLRLSCAASGSIFTYNAMGWYRPAPGKERELVAAINTSGSTNYADSVKGRFTISRDNAKNTVYLQMNSLKPEVTAVFYCAAGIVVTGYYYWGQGTQVTVSS”: “low polyreactivity”. Take “QVQLVESGGGLVQAGGSLRLSCAASGSIFTYNAMGWYRQAPGKERELVAAIRLSGGSTYYADSVKGRFTISRDNAKNTVYLQMNSLKPEDTAVYYCATEYDYGSWYPDGWGIFDYWGQGTQVTVSS”: the “polyreactivity (PSR sort gate)” value is reported as “low polyreactivity”. The value for “QVQLVESGGGLVQAGGSLRLSCAASGSIFTYNAMGWYRQAPGKERELVATISDGGSTYYADSVKGRFTISRDNAKNTVYLQMNSLKPEDTAVYYCNKDRVSVRYEYWGQGTQVTVSS” was “low polyreactivity”; that for “QVQLVESGGGLVQAGGSLRLSCAASGSIFTYNVMGWYRQAPGKERELVAAIRTRGDRTYYADSVKGRFTISRDNAKNTVYLQMNSLKPEDTAVYYCAAAGSYYSHEYWGQGTQVTVSS” was “high polyreactivity”; that for “QVQLVESGGGLVQAGGSLRLSCAASGSIFTYTMGWYRQAPGKERELVAVISRSGGRTYYADSVKGRFTISRDNAKNTVYLQMNSLKPEDTAVYYCATDGHNGYYGRYDYWGQGTQVTVSS” was “high polyreactivity”.

In the case of “QVQLVESGGGLVQAGGSLRLSCAASGSIFTYYAKGWYRQAPGKERELVAAISRRGTRTYYADSVKGRFTISRDNAKNTVYLQMNSLKPEDTAVYYCAKVGYTYRAYEFAYWGQGTQVTVSS”, the “polyreactivity (PSR sort gate)” value is reported as “high polyreactivity”. For the sequence “QVQLVESGGGLVQAGGSLRLSCAASGSIFTYYAMGWYRQAPGKEREFVAAINRSGGSTYYADSVKGRFTISRDNAKYTVYLQMNSLKPEDTAVYYCAARRGSGALRYNYWGQGTQVTVSS”, the “polyreactivity (PSR sort gate)” value is “high polyreactivity”. “QVQLVESGGGLVQAGGSLRLSCAASGSIFTYYAMGWYRQAPGKERELVAAISWNGGTTYYADSVKGLFTISRDNAKNTVYLQMNSLKPEDTAVYYCNKDGSYRYDYWGQGTQVTVSS”: the “polyreactivity (PSR sort gate)” value is listed as “low polyreactivity”. Next, “QVQLVESGGGLVQAGGSLRLSCAASGSIFTYYAMGWYRQAPGKERELVADIRWSGGSTYYADSVKGRFTISRDNAKNTVYLQMNSLKPEDTAVYFCNARYYSYWPIYNFDYWGQGTQVTVSS”: “low polyreactivity”; “QVQLVESGGGLVQAGGSLRLSCAASGSIFTYYVMGWYRQAPGKERELVAAITRSGGRTYYADSVKGRFTISRDNAKNTVYLQMNSLKPEDTAVYYCAARKYTGSGSRYYYWGQGTQVTVSS”: “high polyreactivity”; “QVQLVESGGGLVQAGGSLRLSCAASGSIFVAYAMGWYRQAPGKERELVAAITYSAGSTYYADSVKGRFTISRDNAKNTVYLQMNSLKPEDTAVYYCAADTYTYFLASYLYGQYDYWGQGTQVTVSS”: “low polyreactivity”. Next, “QVQLVESGGGLVQAGGSLRLSCAASGSIFVDNAMGWYRQAPGKERELVAAITDSGGRTYYADSVKGRFTISRDNAKNTVYLQMNSLKPEDTAVYYCAAGQSGYAGRRPAFGYWGQGTQVTVSS”: “low polyreactivity”; “QVQLVESGGGLVQAGGSLRLSCAASGSIFVDNAMGWYRQAPGKERELVAVITLRSGSTNYADSVKGRFTISRDNAKNTVYLQMNSLKPEDTAVYYCAADETYHDYQRDTDDDYWGQGTQVTVSS”: “low polyreactivity”. Regarding “QVQLVESGGGLVQAGGSLRLSCAASGSIFVDNDMGWYRPAPGKERELVAAIRSSGTSTYYADSVKGRFTISRDNAKNTVYLQMNSLKPEDTAVYYCATRYPRRHVYPKPYYYWGQGTQVTVSS”, the “polyreactivity (PSR sort gate)” value is listed as “low polyreactivity”. Next, “QVQLVESGGGLVQAGGSLRLSCAASGSIFVDYAMGWYRQAPGKERELVAAITSTGSTTYADSVKGRFTISRDNAKNTVYLQMNSLKPEDTAVYYCAASFRWYGTVRYPYEMYYWGQGTQVTVSS”: “low polyreactivity”.

For “QVQLVESGGGLVQAGGSLRLSCAASGSIFVFYAMGWYRQAPGKERELVATISSAGSTYYADSVKGRFTISRDNAKNTVYLQMNSLKPEDTAVYYCARGYIPSYWWYHSDRGDYWGQGTQVTVSS”, the “polyreactivity (PSR sort gate)” value was “low polyreactivity”. Next, “QVQLVESGGGLVQAGGSLRLSCAASGSIFVGNAMGWYIQAPGKERELVAAISRSGGSTYYADSVKGRFTISRDNAKNTVYLQMNSLKPEDTAVYYCAAVRKQGSGFDYWGQGTQVTVSS”: “high polyreactivity”; “QVQLVESGGGLVQAGGSLRLSCAASGSIFVGNAMGWYRPAPGKERELVAAISSSGGSTYYADSVKGRFTISRDNAKNTVYLQMNSLKPEDTAVYYCAADIFSPAFDYWGQGTQVTVSS”: “low polyreactivity”.
